Results: patent US5354664
Each block holds one substance with its values, some of them ahead of it.

Columns and labels:
[1] = biological target: bovine fibrinogen (bovine)
[2] = biological target: human fibrinogen (human) (UniProt P02671)
[3] = biological target: bovine thrombin (bovine) (UniProt P00735)
[4] = biological target: bovine thrombin (bovine) (UniProt P00735); remark: listed apart in the source
[5] = biological target: bovine thrombin (bovine) (UniProt P00735); remark: listed apart in the source

Chain of human urine derived thrombin-binding substance obtained using a recombinant DNA technique (r-UTM) (receptor) (chain): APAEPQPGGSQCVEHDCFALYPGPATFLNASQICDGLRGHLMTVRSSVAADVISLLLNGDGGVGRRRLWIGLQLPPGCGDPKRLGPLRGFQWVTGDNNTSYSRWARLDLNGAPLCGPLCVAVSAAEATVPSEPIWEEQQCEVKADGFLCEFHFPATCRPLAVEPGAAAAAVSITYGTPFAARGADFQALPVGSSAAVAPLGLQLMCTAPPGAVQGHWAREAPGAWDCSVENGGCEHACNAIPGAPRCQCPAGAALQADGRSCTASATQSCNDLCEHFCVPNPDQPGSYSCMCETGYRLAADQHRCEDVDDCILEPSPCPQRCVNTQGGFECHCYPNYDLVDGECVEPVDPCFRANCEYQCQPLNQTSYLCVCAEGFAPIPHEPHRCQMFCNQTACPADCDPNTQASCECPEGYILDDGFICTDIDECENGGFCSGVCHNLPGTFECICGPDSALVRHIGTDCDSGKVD

Coagulation time (sec), control [1]: 28.1 s
clotting time, control, ATIII (-) [2]: 43.3 s
Substance: bovine thrombin (from UniProt P00735) (enzyme)

IC50 (time required for the coagulation) [3]: 80 nM
Coagulation time [4]: 29.6 s
clotting time, ATIII (+) (human antithrombin III 250 µg/ml) [5]: 80.8 s
clotting time, ATIII (-) [5]: 61.8 s
Substance: human urine derived thrombin-binding substance obtained using a recombinant DNA technique (r-UTM) (receptor)

clotting time, control, ATIII (+) [5]: 49.5 s
Substance: human antithrombin III (from UniProt P01008)
